Substitutions are numbered along the chain they refer to. In names and notes the source's numbering stands.
B1: 1A1D-2 Fab WT (Fab, V domains shown)
VH: EVQLQQSGAELVKPGASVKLSCTASGFNIKDTYMHWVKQRPEQGLEWIGRIDPANGYSKYDPKFQGKATITADTSSNAAYLQLSSLTSEDTAVYFCARDYEGFAYWGQGTLVTVSS
VL: DIVLTQSPASLAVSLGQRATISCRASESVVRYGNSFMHWYQQKPGQPPKLLIYRASSLESGIPTRFSGSGSRTDFTLTINPVEADDVATYYCQQTNVDPWAFGGGTKLEIK
notes: also called 1A1D-2 WT
B2: 1A1D-2 Fab A54E.H (Fab, V domains shown)
VH: B1 VH with A54E
VL: B1 VL
B3: 1A1D-2 Fab A54E-Y105R double mutant (Fab, V domains shown)
VH: B1 VH with A54E, Y105R
VL: B1 VL
B4: 1A1D-2 Fab Y105R.H (Fab, V domains shown)
VH: B1 VH with Y105R
VL: B1 VL

Tests used:
[1] = target: T1, recombinant MBP-EDIII of DENV1 (Dengue virus 1, strain Guiana/FGA89/1989, strain); assay: SPR; settings: both partners purified
T1 construct: also called DENV1 EDIII; envelope protein domain III of DENV1; not shown: MBP, N-terminal, kept

[2] = target: T2, recombinant MBP-EDIII of DENV3 (Dengue virus 3, strain …, UniProt P27915, strain); assay: SPR; settings: both partners purified
T2 construct: also called DENV3 EDIII; envelope protein domain III of DENV3; not shown: MBP, N-terminal, kept

Binder	Kd [1]	koff [1]	kon [1]	Kd [2]	koff [2]	kon [2]
B1	216 nM	0.00755 s⁻¹	34900 M⁻¹ s⁻¹	91 nM	0.00792 s⁻¹	87000 M⁻¹ s⁻¹
B2	140 nM	0.00617 s⁻¹	44300 M⁻¹ s⁻¹	10.3 nM	0.00364 s⁻¹	354000 M⁻¹ s⁻¹
B3	27.4 nM	0.0012 s⁻¹	43900 M⁻¹ s⁻¹	7.11 nM	0.00158 s⁻¹	222000 M⁻¹ s⁻¹
B4	42.6 nM	0.00185 s⁻¹	43500 M⁻¹ s⁻¹	49.2 nM	0.00419 s⁻¹	85200 M⁻¹ s⁻¹

Source: publication PMC9027083 (International Journal of Molecular Sciences, 2022)
